Reference: publication PMC6791878, “Evaluation of integrin αvβ6 cystine knot PET tracers to detect cancer and idiopathic pulmonary fibrosis” (Nature Communications, 2019)
Values joined by “and” are separate entries in the source; they are usually repeats but may differ in a detail not shown here. Equal values may be shown once. Read-outs that look alike come from different tables or passages of the source.

Legend:
[1] = tested on: αvβ6 expressing BxPC3 pancreatic cancer xenografts; details: for Tumor: αvβ6 (+)
Method: (§1) Female athymic nude mice, 4–6 weeks old (Charles River), were subcutaneously shoulder-injected with 10^7 cells suspended in 100 µL PBS. Mice were used for imaging and biodistribution studies when xenografted tumors grew to a diameter of ~1 cm.
(§2) Tumor-bearing Nu/Nu female mice (n = 3 for each probe) were anesthetized using 2% isoflurane in oxygen and injected with ~100 µCi (~0.15 nmol) of the tracers described above via the tail vein. Five-minute static PET scans were acquired on an Inveon PET-CT or Inveon D-PET scanner (Siemens Healthcare, Malvern PA). Images were reconstructed by a two-dimensional ordered expectation maximum subset algorithm and calibrated as described below. ROIs were drawn over the tumor on decay-corrected whole-body images using Inveon Research Workplace (IRW) software (Siemens) or ASIPro VM software (Siemens). ROIs were converted to counts g^−1 min^−1, and %ID g^−1 values were determined assuming a tissue density of 1 g ml^−1.
(§3) Scanner activity calibration was performed to map between PET image units and units of radioactivity concentration. A preweighed 50-mL centrifuge tube was filled with distilled water and ^64CuCl2 (∼9.3 MBq [∼250 μCi] as determined by the dose calibrator) was used to simulate the whole body of the mouse. This tube was weighed, centered in the scanner aperture, and imaged for a 30-min static image, single bed position. From the sample weight and assuming a density of 1 g ml^−1, the activity concentration in the bottle was calculated in units of μCi mL^−1. Eight planes were acquired in the coronal section. A rectangular region of interest (ROI) (counts/pixel/s) was drawn on the middle of eight coronal planes.

in vivo = details: female, athymic nude (Nu/Nu), mouse, iv, total radioactivity; for tissue uptake at 2 h: microPET 2 hr; for tissue uptake at 4 h: microPET 4 hr; for tissue uptake at 24 h: microPET 24 hr; for tissue to tissue ratio at 1 h: tumor / muscle, 100 uCi
Method: as §1, §2, §3

[2] = PET, 1 h p.i., average ± SD, n = 3
[3] = microPET 2 hr, individual mice, listed as R01 DOTA Cu-64
[4] = microPET 4 hr, individual mice, listed as R01 DOTA Cu-64
[5] = kidney, PET, 1 h p.i., average ± SD, n = 3
[6] = kidney, microPET 1 hr, individual mice
[7] = liver, microPET 1 hr, individual mice
[8] = muscle, PET, 1 h p.i., average ± SD, n = 3
[9] = muscle, microPET 1 hr, individual mice
[10] = tumor (BxPC3 xenograft), Tumor avb6(+), microPET 1 hr, individual mice, one line per mouse
[11] = tumor (BxPC3 xenograft), Tumor avb6(+), individual mice
[12] = tumor (BxPC3 xenograft, αvβ6 positive), Tumor, PET, 1 h p.i., αvβ6 (+), average ± SD, n = 3
[13] = microPET 4 hr, individual mice, listed as R01-MG DOTA Cu-64
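Also: shoulder subcutaneous xenografts near 1 cm, tracer given via tail vein, 5-min static PET, ROI activity on decay-corrected images converted to %ID/g with tissue density taken as 1 g/mL.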

Row | Structure (SMILES) | Tumor [1, 2] | Kidney [1, 2] | tissue uptake at 1 h (in vivo; [5]) [%ID/g] | tissue uptake at 1 h (in vivo; [6]) [%ID/g] | tissue uptake at 2 h (in vivo; kidney, individual mice) [%ID/g] | tissue uptake at 4 h (in vivo; kidney, individual mice) [%ID/g] | tissue uptake at 24 h (in vivo; kidney, individual mice) [%ID/g] | tissue uptake at 1 h (in vivo; [7]) [%ID/g] | tissue uptake at 2 h (in vivo; liver, individual mice) [%ID/g] | tissue uptake at 4 h (in vivo; liver, individual mice) [%ID/g] | tissue uptake at 24 h (in vivo; liver, individual mice) [%ID/g] | tissue uptake at 1 h (in vivo; [8]) [%ID/g] | tissue uptake at 1 h (in vivo; [9]) [%ID/g] | tissue uptake at 2 h (in vivo; muscle, individual mice) [%ID/g] | tissue uptake at 4 h (in vivo; muscle, individual mice) [%ID/g] | tissue uptake at 24 h (in vivo; muscle, individual mice) [%ID/g] | tissue uptake at 1 h (in vivo; [10]) [%ID/g] | tissue uptake at 2 h (in vivo; [11]) [%ID/g] | tissue uptake at 4 h (in vivo; [11]) [%ID/g] | tissue uptake at 24 h (in vivo; [11]) [%ID/g] | other results
1 | CC[C@H](C)[C@@H]1NC(=O)[C@@H](NC(=O)CNC(=O)CN2CCN(CC(=O)O)CCN(CC(=O)O)CCN(CC(=O)O)CC2)CSSC[C@@H]2NC(=O)[C@H](C)NC(=O)CNC(=O)[C@@H]3CCCN3C(=O)[C@@H]3CSSC[C@@H](C(=O)NCC(N)=O)NC(=O)[C@H](Cc4ccc(O)cc4)NC(=O)CNC(=O)[C@H](CC(N)=O)NC(=O)CNC(=O)[C@H](CCCNC(=N)N)NC(=O)[C@H](CSSC[C@H](NC(=O)[C@H](CCCNC(=N)N)NC(=O)[C@H](Cc4ccccc4)NC(=O)[C@H](CC(C)C)NC(=O)[C@H](CC(C)C)NC(=O)[C@H]([C@@H](C)O)NC(=O)CNC(=O)[C@H](CC(C)C)NC(=O)[C@H](CC(=O)O)NC(=O)[C@H]([C@@H](C)O)NC(=O)[C@H](CCCNC(=N)N)NC(=O)[C@H](CCSC)NC(=O)[C@H](CC(N)=O)NC(=O)[C@H](CC(C)C)NC1=O)C(=O)N[C@@H](CCCNC(=N)N)C(=O)N[C@@H](CCCNC(=N)N)C(=O)N[C@@H](CC(=O)O)C(=O)N[C@@H](CO)C(=O)N[C@@H](CC(=O)O)C(=O)N3)NC(=O)[C@H]([C@@H](C)CC)NC2=O [[^64Cu]DOTA-R01, metal not drawn] | ~ 3 %ID g^−1 | ~ 30 %ID g^−1 | 30.3 ± 2.33 | 32.9 | 34.3 | 29.8 | 11.5 | 2.34 | 1.82 | 1.79 | 2.93 | 0.433 ± 0.008 | 0.427 | 0.404 | 0.399 | 0.37 | 2.99 | 2.87 | 2.39 | 1.85 | Muscle ([1]; microPET 1 hr, individual mice, listed as Ro1 DOTA Cu-64): 0.4306 %ID/g; Muscle [1, 3]: 0.407 %ID/g; Tumor avb6(+) [1, 3]: 2.883 %ID/g; Kidney [1, 4]: 29.77 %ID/g; Muscle [1, 4]: 0.4024 %ID/g; Muscle ([1]; microPET 24 hr, individual mice, listed as R01 DOTA Cu-64): 0.3725 %ID/g; tissue uptake at 1 h (in vivo; liver, PET, 1 h p.i., average ± SD, n = 3): 2.26 ± 0.11 %ID/g; tissue uptake at 1 h (in vivo; [12]): 3.07 ± 0.17 %ID/g; tissue to tissue ratio at 1 h (in vivo): 7.09 ± 0.27
2 | CC[C@H](C)[C@@H]1NC(=O)[C@@H](NC(=O)CNC(=O)CN2CCN(CC(=O)O)CCN(CC(=O)O)CCN(CC(=O)O)CC2)CSSC[C@@H]2NC(=O)[C@H](C)NC(=O)CNC(=O)[C@@H]3CCCN3C(=O)[C@@H]3CSSC[C@@H](C(=O)NCC(N)=O)NC(=O)[C@H](Cc4ccc(O)cc4)NC(=O)CNC(=O)[C@H](CC(N)=O)NC(=O)CNC(=O)[C@H](CCCNC(=N)N)NC(=O)[C@H](CSSC[C@H](NC(=O)[C@H](CCCNC(=N)N)NC(=O)[C@H](Cc4ccccc4)NC(=O)[C@H](CC(C)C)NC(=O)[C@H](CC(C)C)NC(=O)[C@H]([C@@H](C)O)NC(=O)CNC(=O)[C@H](CC(C)C)NC(=O)[C@H](CC(=O)O)NC(=O)[C@H]([C@@H](C)O)NC(=O)[C@H](CCCNC(=N)N)NC(=O)CNC(=O)[C@H](CC(N)=O)NC(=O)[C@H](CC(C)C)NC1=O)C(=O)N[C@@H](CCCNC(=N)N)C(=O)N[C@@H](CCCNC(=N)N)C(=O)N[C@@H](CC(=O)O)C(=O)N[C@@H](CO)C(=O)N[C@@H](CC(=O)O)C(=O)N3)NC(=O)[C@H]([C@@H](C)CC)NC2=O [[^64Cu]DOTA-R01-MG, metal not drawn] | ~ 3 %ID g^−1 | ~ 30 %ID g^−1 | 28.4 ± 2.61 | 25.3 | 26.9 | 25.6 | 10.8 | 1.77 | 2.38 | 2.4 | 3.39 | 0.472 ± 0.003 | 0.471 | 0.398 | 0.385 | 0.394 | 2.93 | 2.27 | 2.22 | 2.52 | Liver [1, 2]: 2.14 ± 0.38 % injected dose gram^−1; Tumor avb6(+) ([1]; microPET 1 hr, individual mice, one line per mouse, listed as Ro1-MG DOTA Cu-64): 2.952 %ID/g; Muscle ([1]; microPET 1 hr, individual mice, listed as Ro1-MG DOTA Cu-64): 0.4707 %ID/g; Muscle ([1]; microPET 2 hr, individual mice, listed as R01-MG DOTA Cu-64): 0.4023 %ID/g and 0.398 %ID/g; Liver [1, 13]: 2.382 %ID/g; Muscle [1, 13]: 0.3296 %ID/g; Muscle ([1]; microPET 24 hr, individual mice, listed as R01-MG DOTA Cu-64): 0.3985 %ID/g and 0.3942 %ID/g; tissue uptake at 1 h (in vivo; [12]): 2.74 ± 0.35 %ID/g; tissue to tissue ratio at 1 h (in vivo): 5.8 ± 0.72
